The molecules below were run on Renilla luciferase RNA (assay: Barcoded aptazyme variant library screen: un-cleaved Renilla luciferase RNA by barcode read counts, HEK293-T cells). Conditions: un-cleaved Renilla luciferase RNA by barcode read counts; with 1 mM theophylline (ON) over without theophylline (OFF); HEK293-T cells; triplicate.
Type: cell-based
Procedure, shortened: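 Aptazyme variants (seven theophylline aptamers inserted after each T3H48 ribozyme nucleotide, 9-nt barcoded) cloned into the 3′ UTR of Renilla luciferase in psiCHECK-2; cells cultured ± theophylline, in triplicate. RNA and DNA barcodes amplified and sequenced; normalized read counts gave un-cleaved RNA fraction and ON/OFF fold-change.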

| Molecule | Fold change in RNA expression between the ON state and the OFF state |
| --- | --- |
| RA416 (nucleic acid, expressed or natural sequence) DNA: GCGCGTCCTGGACGGAATACCAGCATCGTCTTGATGCCCTTGGAAGTCCGTTCGCGGAAACGCGTACATCCAGCTGACGAGTCCCAAATAGGACGAAACGCGC | 0.7 |
| RA417 (nucleic acid, expressed or natural sequence) DNA: GCGCGTCCTGGATTCGCGGAAACGCGTACATCCAGCTGACGAGTCCCAAATCGGAATACCAGCATCGTCTTGATGCCCTTGGAAGTCCGAGGACGAAACGCGC | 0.7 |
| RA418 (nucleic acid, expressed or natural sequence) DNA: GCGCGTCCTGGATTCGCGGAAACGCGTACATCGAGAATACCAGCATCGTCTTGATGCCCTTGGAAGTCTCGCCAGCTGACGAGTCCCAAATAGGACGAAACGCGC | 0.7 |
| RA419 (nucleic acid, expressed or natural sequence) DNA: GCGCGTCCTGGATTCGCGGAAACGCGTACATCCAGCTGACGAGTCCCAAATAGGACGAAAGAATACCAGCATCGTCTTGATGCCCTTGGAAGTCTACGCGC | 0.7 |
| RA420 (nucleic acid, expressed or natural sequence) DNA: GCGCGTCCTGGATTCGCGGAAACGGAGAATACCAGCATCGTCTTGATGCCCTTGGAAGTCTCCGTACATCCAGCTGACGAGTCCCAAATAGGACGAAACGCGC | 0.6 |
| RA421 (nucleic acid, expressed or natural sequence) DNA: GCGCGTCCTGGATTCGCGGAAAGAGAATACCAGCATCGTCTTGATGCCCTTGGAAGTCTCCGCGTACATCCAGCTGACGAGTCCCAAATAGGACGAAACGCGC | 0.6 |
| RA422 (nucleic acid, expressed or natural sequence) DNA: GCGCGTCCTGGATTCGCGGAAACGCGTACATCCAGCTGACGAGTCCCAAATAGGACGACGGAATACCAGCATCGTCTTGATGCCCTTGGAAGTCCGAACGCGC | 0.6 |
| RA423 (nucleic acid, expressed or natural sequence) DNA: GCGCGTCCTGGATTCGCGGAAACGCGTACATCCAGCTGACGAGCCGGAATACCAGCATCGTCTTGATGCCCTTGGAAGTCCGGTCCCAAATAGGACGAAACGCGC | 0.6 |
| RA424 (nucleic acid, expressed or natural sequence) DNA: GCGCGTCCTGGATTCGCGGAAACGCGTACATCCAGCTGCGAGAATACCAGCATCGTCTTGATGCCCTTGGAAGTCTCGACGAGTCCCAAATAGGACGAAACGCGC | 0.6 |
| RA425 (nucleic acid, expressed or natural sequence) DNA: GCGCGTCCTGGATTCGCGGAAACGCGTACAGGAATACCAGCATCGTCTTGATGCCCTTGGAAGTCCTCCAGCTGACGAGTCCCAAATAGGACGAAACGCGC | 0.6 |
| RA426 (nucleic acid, expressed or natural sequence) DNA: GCGCGTCCTGGATTCGCGGAAACGCGTACATCCAGCTGACGAGTCCCAAATAGGACGCCGGAATACCAGCATCGTCTTGATGCCCTTGGAAGTCCGGAAACGCGC | 0.6 |
| RA427 (nucleic acid, expressed or natural sequence) DNA: GCGCGTCCTGCCGGAATACCAGCATCGTCTTGATGCCCTTGGAAGTCCGGGATTCGCGGAAACGCGTACATCCAGCTGACGAGTCCCAAATAGGACGAAACGCGC | 0.6 |
| RA428 (nucleic acid, expressed or natural sequence) DNA: GCGCGTCCTGGATTCGCGGAAACGCGTACATCCAGCTGACGAGTCCGAGAATACCAGCATCGTCTTGATGCCCTTGGAAGTCTCCAAATAGGACGAAACGCGC | 0.6 |
| RA429 (nucleic acid, expressed or natural sequence) DNA: GCGCGTCCTGGATTCGCGGGGAATACCAGCATCGTCTTGATGCCCTTGGAAGTCCAAACGCGTACATCCAGCTGACGAGTCCCAAATAGGACGAAACGCGC | 0.6 |
| RA430 (nucleic acid, expressed or natural sequence) DNA: GCGCGTCCTGGATTCGCGGAAACGCGTACATCCAGCTGAGAGAATACCAGCATCGTCTTGATGCCCTTGGAAGTCTCCGAGTCCCAAATAGGACGAAACGCGC | 0.6 |
| RA431 (nucleic acid, expressed or natural sequence) DNA: GCGCGTCCTGGATTCGCGGAAACGCGTACATCCACGGAATACCAGCATCGTCTTGATGCCCTTGGAAGTCCGGCTGACGAGTCCCAAATAGGACGAAACGCGC | 0.6 |
| RA432 (nucleic acid, expressed or natural sequence) DNA: GCGCGTCCTGGATTCGCGGAAACGCGTACATCCAGCTGACGAGTCCCACCGGAATACCAGCATCGTCTTGATGCCCTTGGAAGTCCGGAATAGGACGAAACGCGC | 0.6 |
| RA433 (nucleic acid, expressed or natural sequence) DNA: GCGCGTCCTGGATTCGCGGAAACGCGTACATCCAGCTGACGAGTCCCAAATAGGAAGTGATACCAGCATCGTCTTGATGCCCTTGGCAGCACTCGAAACGCGC | 0.6 |
| RA434 (nucleic acid, expressed or natural sequence) DNA: GCGCGTCCAGAATACCAGCATCGTCTTGATGCCCTTGGAAGTCTTGGATTCGCGGAAACGCGTACATCCAGCTGACGAGTCCCAAATAGGACGAAACGCGC | 0.6 |
| RA435 (nucleic acid, expressed or natural sequence) DNA: GCGCGTCCTGGATTCGCGGAAACGCGTACATCCAGCTGACGAGTCCCAAACGGAATACCAGCATCGTCTTGATGCCCTTGGAAGTCCGTAGGACGAAACGCGC | 0.6 |
| RA436 (nucleic acid, expressed or natural sequence) DNA: GCGCGTCCTGGATTCGCGGAAACGCGTACATCCAGCGGAATACCAGCATCGTCTTGATGCCCTTGGAAGTCCGCTGACGAGTCCCAAATAGGACGAAACGCGC | 0.6 |
| RA437 (nucleic acid, expressed or natural sequence) DNA: GCGCGTCCTGGATTCGCGGAAACGCGTACATCCAGCTGACGAGTCCCAAGAATACCAGCATCGTCTTGATGCCCTTGGAAGTCTAATAGGACGAAACGCGC | 0.6 |
| RA438 (nucleic acid, expressed or natural sequence) DNA: GCGCGTCCTGGATTCGCGGAAACGCGTACATCCAGCTGACGAGTCCCAAATAGGACGCGGAATACCAGCATCGTCTTGATGCCCTTGGAAGTCCGAAACGCGC | 0.6 |
| RA439 (nucleic acid, expressed or natural sequence) DNA: GCGCGTGAGAATACCAGCATCGTCTTGATGCCCTTGGAAGTCTCCCTGGATTCGCGGAAACGCGTACATCCAGCTGACGAGTCCCAAATAGGACGAAACGCGC | 0.6 |
| RA440 (nucleic acid, expressed or natural sequence) DNA: GCGCGTCCTGGATTCGCGGAAACGCGTACATCCAGCTGACGAGTCCCAAATAGGACGAAACGCCGGAATACCAGCATCGTCTTGATGCCCTTGGAAGTCCGGC | 0.6 |

Same assay, conditions: un-cleaved Renilla luciferase RNA, HEK293-T cells cultured with 1 mM theophylline (ON) over without theophylline (OFF); barcode read counts, triplicate

| Molecule | Fold change in RNA expression between the ON state and the OFF state |
| --- | --- |
| RA041 (nucleic acid, expressed or natural sequence) DNA: GCGCGTCCTGGATTCGCGGAAACGCGAGTGATACCAGCATCGTCTTGATGCCCTTGGCAGCACTTACATCCAGCTGACGAGTCCCAAATAGGACGAAACGCGC | 2.1 fold |
| RA042 (nucleic acid, expressed or natural sequence) DNA: GCGCGTCCTGGATTCGCGGAAACGCGTACATCCAAGAATACCAGCATCGTCTTGATGCCCTTGGAAGTCTGCTGACGAGTCCCAAATAGGACGAAACGCGC | 2.1 fold |
| RA043 (nucleic acid, expressed or natural sequence) DNA: GCGCGTCCTCGAGAATACCAGCATCGTCTTGATGCCCTTGGAAGTCTCGGGATTCGCGGAAACGCGTACATCCAGCTGACGAGTCCCAAATAGGACGAAACGCGC | 2.1 fold |

From patent publication US20260167959A1, “APTAZYME-BASED REGULATABLE GENE EXPRESSION SYSTEMS” (REJUVENATE BIO INC, priority 2022, published 2026)
